Test system: purified recombinant full-length Src from Upstate Biotechnology

For purified pig kidney Na+/K+-ATPase (PKE), the “Src-mediated tyrosine phosphorylation (commercial kinase assay kit)” value was “the Na+/K+-ATPase kept Src in an inactive state, addition of ouabain restored the kinase activity”.
